Literature values as cited in article PMC3433420.
Read-outs that look alike come from different tables or passages of the source.

Assays:
Details in all cases: cited from earlier work
PIK3R2-N (Homo sapiens) [1] = target: PIK3R2-N (Homo sapiens) (UniProt O00459)
VAV1 (Homo sapiens) [2] = target: VAV1 (Homo sapiens) (UniProt P15498)
ABL2 (Homo sapiens) [3] = target: ABL2 (Homo sapiens) (UniProt P42684)
PIK3R3-NC (Homo sapiens) [4] = target: PIK3R3-NC (Homo sapiens) (UniProt Q92569)
VAV2 (Homo sapiens) [5] = target: VAV2 (Homo sapiens) (UniProt P52735)
VAV2 (Homo sapiens) [6] = target: VAV2 (Homo sapiens) (UniProt P52735); remark: listed apart in the source
RASA1-N (Homo sapiens) [7] = target: RASA1-N (Homo sapiens) (UniProt P20936)
PTPN11-N (Homo sapiens) = PTPN11-N (Homo sapiens) (UniProt Q06124)
ABL2 (Homo sapiens) [8] = target: ABL2 (Homo sapiens) (UniProt P42684); remark: listed apart in the source
CRK (Homo sapiens) [9] = target: CRK (Homo sapiens) (UniProt P46108)
VAV3 (Homo sapiens) = VAV3 (Homo sapiens) (UniProt Q9UKW4)
CRKL (Homo sapiens) [10] = target: CRKL (Homo sapiens) (UniProt P46109)
NCK2 (Homo sapiens) [11] = target: NCK2 (Homo sapiens) (UniProt O43639)
SLA (Homo sapiens) [12] = target: SLA (Homo sapiens) (UniProt Q13239)
SYK-NC (Homo sapiens) [13] = target: SYK-NC (Homo sapiens) (UniProt P43405)
RASA1-N (Homo sapiens) [14] = target: RASA1-N (Homo sapiens) (UniProt P20936); remark: listed apart in the source
PLCG1-C (Homo sapiens) [15] = target: PLCG1-C (Homo sapiens) (UniProt P19174)
PLCG1-NC (Homo sapiens) [16] = target: PLCG1-NC (Homo sapiens) (UniProt P19174)
PLCG1-NC (Homo sapiens) [17] = target: PLCG1-NC (Homo sapiens) (UniProt P19174); remark: listed apart in the source
VAV2 (Homo sapiens) [18] = target: VAV2 (Homo sapiens) (UniProt P52735); remark: listed apart in the source
FGR (Homo sapiens) = FGR (Homo sapiens) (UniProt P09769)
ABL1 (Homo sapiens) = ABL1 (Homo sapiens) (UniProt P00519)
SYK-NC (Homo sapiens) [19] = target: SYK-NC (Homo sapiens) (UniProt P43405); remark: listed apart in the source
ITK (Homo sapiens) = ITK (Homo sapiens) (UniProt Q08881)
SRC (Homo sapiens) = SRC (Homo sapiens) (UniProt P12931)
PTPN11-NC (Homo sapiens) = PTPN11-NC (Homo sapiens) (UniProt Q06124)
PIK3R2-N (Homo sapiens) [20] = target: PIK3R2-N (Homo sapiens) (UniProt O00459); remark: listed apart in the source
CRK (Homo sapiens) [21] = target: CRK (Homo sapiens) (UniProt P46108); remark: listed apart in the source
PIK3R3-C (Homo sapiens) = PIK3R3-C (Homo sapiens) (UniProt Q92569)
PIK3R1-NC (Homo sapiens) = PIK3R1-NC (Homo sapiens) (UniProt P27986)
VAV1 (Homo sapiens) [22] = target: VAV1 (Homo sapiens) (UniProt P15498); remark: listed apart in the source
BLK (Homo sapiens) = BLK (Homo sapiens) (UniProt P51451)
RASA1-N (Homo sapiens) [23] = target: RASA1-N (Homo sapiens) (UniProt P20936); remark: listed apart in the source
LYN (Homo sapiens) = LYN (Homo sapiens) (UniProt P07948)
NCK2 (Homo sapiens) [24] = target: NCK2 (Homo sapiens) (UniProt O43639); remark: listed apart in the source
PLCG1-C (Homo sapiens) [25] = target: PLCG1-C (Homo sapiens) (UniProt P19174); remark: listed apart in the source
GRB2 (Homo sapiens) = GRB2 (Homo sapiens) (UniProt P62993)
PIK3R3-NC (Homo sapiens) [26] = target: PIK3R3-NC (Homo sapiens) (UniProt Q92569); remark: listed apart in the source
BCAR3 (Homo sapiens) = BCAR3 (Homo sapiens) (UniProt O75815)
PIK3R2-NC (Homo sapiens) = PIK3R2-NC (Homo sapiens) (UniProt O00459)
ABL2 (Homo sapiens) [27] = target: ABL2 (Homo sapiens) (UniProt P42684); remark: listed apart in the source
TNS3 (Homo sapiens) = TNS3 (Homo sapiens) (UniProt Q68CZ2)
GRAP2 (Homo sapiens) = GRAP2 (Homo sapiens) (UniProt O75791)
SLA (Homo sapiens) [28] = target: SLA (Homo sapiens) (UniProt Q13239); remark: listed apart in the source
BMX (Homo sapiens) = BMX (Homo sapiens) (UniProt P51813)
PIK3R3-N (Homo sapiens) = PIK3R3-N (Homo sapiens) (UniProt Q92569)
PLCG2-NC (Homo sapiens) = PLCG2-NC (Homo sapiens) (UniProt P16885)
TENC1 (Homo sapiens) = TENC1 (Homo sapiens) (UniProt Q63HR2)
CRKL (Homo sapiens) [29] = target: CRKL (Homo sapiens) (UniProt P46109); remark: listed apart in the source
SH2D2A (Homo sapiens) = SH2D2A (Homo sapiens) (UniProt Q9NP31)
HCK (Homo sapiens) = HCK (Homo sapiens) (UniProt P08631)
PIK3R1-N (Homo sapiens) = PIK3R1-N (Homo sapiens) (UniProt P27986)
SH3BP2 (Homo sapiens) = SH3BP2 (Homo sapiens) (UniProt P78314)
GRB7 (Homo sapiens) = GRB7 (Homo sapiens) (UniProt Q14451)

VAV2 (Homo sapiens), sequence (P52735 668-772): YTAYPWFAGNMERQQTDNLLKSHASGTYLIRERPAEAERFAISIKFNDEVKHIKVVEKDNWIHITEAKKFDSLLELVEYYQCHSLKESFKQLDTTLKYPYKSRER
ABL2 (Homo sapiens), sequence (P42684 168-268): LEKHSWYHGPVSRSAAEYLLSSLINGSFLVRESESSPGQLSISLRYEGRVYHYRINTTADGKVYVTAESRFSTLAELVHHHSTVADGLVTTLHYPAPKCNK
RASA1-N (Homo sapiens), sequence (P20936 176-446): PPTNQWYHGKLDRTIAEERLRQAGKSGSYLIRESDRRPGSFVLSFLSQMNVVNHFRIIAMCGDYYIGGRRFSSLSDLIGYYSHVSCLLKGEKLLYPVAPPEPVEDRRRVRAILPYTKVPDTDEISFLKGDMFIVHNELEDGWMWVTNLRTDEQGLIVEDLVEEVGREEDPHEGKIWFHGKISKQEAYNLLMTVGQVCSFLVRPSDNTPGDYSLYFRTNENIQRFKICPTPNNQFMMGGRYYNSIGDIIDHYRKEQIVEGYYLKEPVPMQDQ
CRKL (Homo sapiens), sequence (P46109 9-107): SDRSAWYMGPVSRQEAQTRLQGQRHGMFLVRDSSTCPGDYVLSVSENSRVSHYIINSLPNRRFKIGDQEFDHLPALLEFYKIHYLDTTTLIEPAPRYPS
PIK3R2-N (Homo sapiens), sequence (O00459 325-721): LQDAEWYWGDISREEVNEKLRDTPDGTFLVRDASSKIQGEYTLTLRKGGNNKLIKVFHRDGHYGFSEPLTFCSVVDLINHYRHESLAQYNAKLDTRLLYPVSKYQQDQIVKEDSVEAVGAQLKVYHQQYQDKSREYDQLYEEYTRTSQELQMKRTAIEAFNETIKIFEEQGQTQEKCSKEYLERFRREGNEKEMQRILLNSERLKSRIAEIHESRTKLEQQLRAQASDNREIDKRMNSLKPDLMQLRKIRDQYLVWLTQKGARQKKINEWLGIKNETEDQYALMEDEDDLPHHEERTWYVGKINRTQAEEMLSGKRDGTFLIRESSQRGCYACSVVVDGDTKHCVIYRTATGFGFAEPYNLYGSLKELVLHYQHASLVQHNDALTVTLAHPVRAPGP
VAV1 (Homo sapiens), sequence (P15498 666-770): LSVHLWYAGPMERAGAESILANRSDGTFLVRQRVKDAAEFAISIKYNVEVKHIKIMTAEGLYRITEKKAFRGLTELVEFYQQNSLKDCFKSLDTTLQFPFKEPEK
CRK (Homo sapiens), sequence (P46108 8-123): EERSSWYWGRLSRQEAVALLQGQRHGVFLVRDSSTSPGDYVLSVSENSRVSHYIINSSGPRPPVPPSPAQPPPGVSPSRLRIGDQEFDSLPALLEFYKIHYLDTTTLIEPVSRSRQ
SLA (Homo sapiens), sequence (Q13239 79-180): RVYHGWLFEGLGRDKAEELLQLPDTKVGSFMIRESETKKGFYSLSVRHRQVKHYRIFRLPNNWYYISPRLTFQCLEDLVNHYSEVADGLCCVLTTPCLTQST
PLCG1-C (Homo sapiens), sequence (P19174 545-761): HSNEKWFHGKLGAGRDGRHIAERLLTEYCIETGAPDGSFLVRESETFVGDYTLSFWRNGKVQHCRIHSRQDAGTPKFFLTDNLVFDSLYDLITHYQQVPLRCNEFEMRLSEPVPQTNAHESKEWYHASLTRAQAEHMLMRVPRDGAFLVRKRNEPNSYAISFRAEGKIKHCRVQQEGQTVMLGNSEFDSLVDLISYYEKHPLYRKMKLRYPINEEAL
PLCG1-NC (Homo sapiens), sequence (P19174 545-761): as above
NCK2 (Homo sapiens), sequence (O43639 280-380): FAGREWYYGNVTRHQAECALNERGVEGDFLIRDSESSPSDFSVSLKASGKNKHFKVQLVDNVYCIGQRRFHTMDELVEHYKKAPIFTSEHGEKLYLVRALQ
LYN (Homo sapiens), sequence (P07948 124-231): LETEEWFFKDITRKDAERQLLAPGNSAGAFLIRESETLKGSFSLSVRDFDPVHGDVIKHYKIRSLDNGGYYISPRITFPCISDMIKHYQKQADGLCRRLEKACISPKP
ITK (Homo sapiens), sequence (Q08881 234-343): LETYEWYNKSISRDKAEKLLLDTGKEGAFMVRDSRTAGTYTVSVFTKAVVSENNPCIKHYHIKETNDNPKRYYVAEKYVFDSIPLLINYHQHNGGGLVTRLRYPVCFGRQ
ABL1 (Homo sapiens), sequence (P00519 122-222): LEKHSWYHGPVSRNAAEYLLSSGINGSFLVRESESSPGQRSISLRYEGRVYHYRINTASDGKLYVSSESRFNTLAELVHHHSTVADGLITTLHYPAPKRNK
SH3BP2 (Homo sapiens), sequence (P78314 452-560): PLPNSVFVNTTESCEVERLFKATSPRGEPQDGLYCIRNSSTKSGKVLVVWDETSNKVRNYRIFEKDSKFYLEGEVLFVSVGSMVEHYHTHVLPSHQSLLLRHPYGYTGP
BMX (Homo sapiens), sequence (P51813 291-397): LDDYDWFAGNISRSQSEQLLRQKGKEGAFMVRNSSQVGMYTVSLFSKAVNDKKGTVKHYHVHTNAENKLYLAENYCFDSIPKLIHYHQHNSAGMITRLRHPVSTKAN
GRAP2 (Homo sapiens), sequence (O75791 53-154): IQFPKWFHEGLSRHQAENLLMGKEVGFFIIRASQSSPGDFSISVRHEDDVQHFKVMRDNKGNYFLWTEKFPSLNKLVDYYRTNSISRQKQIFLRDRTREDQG
VAV3 (Homo sapiens), sequence (Q9UKW4 667-771): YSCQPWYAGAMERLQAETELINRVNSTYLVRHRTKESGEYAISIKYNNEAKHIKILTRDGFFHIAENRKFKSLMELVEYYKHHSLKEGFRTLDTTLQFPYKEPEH
HCK (Homo sapiens), sequence (P08631 139-246): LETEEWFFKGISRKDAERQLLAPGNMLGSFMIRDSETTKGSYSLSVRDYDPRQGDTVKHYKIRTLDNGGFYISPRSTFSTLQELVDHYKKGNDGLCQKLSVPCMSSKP
PIK3R1-NC (Homo sapiens), sequence (P27986 328-723): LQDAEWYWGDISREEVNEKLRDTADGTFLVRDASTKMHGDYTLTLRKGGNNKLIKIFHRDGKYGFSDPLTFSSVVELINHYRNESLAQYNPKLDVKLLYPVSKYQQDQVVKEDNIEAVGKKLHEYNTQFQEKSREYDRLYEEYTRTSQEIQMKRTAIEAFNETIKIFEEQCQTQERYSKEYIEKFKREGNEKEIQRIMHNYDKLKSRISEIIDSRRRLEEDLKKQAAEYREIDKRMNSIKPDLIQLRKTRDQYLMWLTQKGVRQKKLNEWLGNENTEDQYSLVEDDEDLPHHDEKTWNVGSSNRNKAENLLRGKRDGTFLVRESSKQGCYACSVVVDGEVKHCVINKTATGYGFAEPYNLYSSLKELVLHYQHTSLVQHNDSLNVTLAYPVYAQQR
PIK3R1-N (Homo sapiens), sequence (P27986 328-723): as above
PIK3R2-NC (Homo sapiens), sequence (O00459 325-721): as the sequence (O00459 325-721) above
GRB2 (Homo sapiens), sequence (P62993 55-157): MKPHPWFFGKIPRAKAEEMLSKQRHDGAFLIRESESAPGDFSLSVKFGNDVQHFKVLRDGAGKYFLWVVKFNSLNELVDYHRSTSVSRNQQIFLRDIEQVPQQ
BLK (Homo sapiens), sequence (P51451 119-225): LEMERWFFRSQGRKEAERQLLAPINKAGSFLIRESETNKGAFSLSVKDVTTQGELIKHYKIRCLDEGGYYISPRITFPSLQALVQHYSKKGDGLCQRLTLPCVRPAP

## …pYLNPVEENd
PIK3R2-N (Homo sapiens) [1]
  apparent Kd (screen): 2 µM
VAV1 (Homo sapiens) [2]
  apparent Kd (screen): 2 µM
ABL2 (Homo sapiens) [3]
  apparent Kd (screen): 0.283 µM
PIK3R3-NC (Homo sapiens) [4]
  apparent Kd (screen): 2 µM
VAV2 (Homo sapiens) [5]
  apparent Kd (screen): 0.1 µM
VAV2 (Homo sapiens) [6]
  apparent Kd (screen): 2 µM
RASA1-N (Homo sapiens) [7]
  apparent Kd (screen): 2 µM
PTPN11-N (Homo sapiens)
  apparent Kd (screen): 2 µM
ABL2 (Homo sapiens) [8]
  apparent Kd (screen): 0.316 µM
CRK (Homo sapiens) [9]
  apparent Kd (screen): 2 µM
VAV3 (Homo sapiens)
  apparent Kd (screen): 2 µM
CRKL (Homo sapiens) [10]
  apparent Kd (screen): 2 µM
NCK2 (Homo sapiens) [11]
  apparent Kd (screen): 2 µM
SLA (Homo sapiens) [12]
  apparent Kd (screen): 2 µM
SYK-NC (Homo sapiens) [13]
  apparent Kd (screen): 2 µM
RASA1-N (Homo sapiens) [14]
  apparent Kd (screen): 0.983 µM
PLCG1-C (Homo sapiens) [15]
  apparent Kd (screen): 2 µM
PLCG1-NC (Homo sapiens) [16]
  apparent Kd (screen): 2 µM

## …pYVNQPDVR
PLCG1-NC (Homo sapiens) [17]
  apparent Kd (screen): 2 µM
VAV2 (Homo sapiens) [18]
  apparent Kd (screen): 0.226 µM
FGR (Homo sapiens)
  apparent Kd (screen): 0.454 µM
ABL1 (Homo sapiens)
  apparent Kd (screen): 0.157 µM
SYK-NC (Homo sapiens) [19]
  apparent Kd (screen): 0.973 µM
ITK (Homo sapiens)
  apparent Kd (screen): 1.51 µM
SRC (Homo sapiens)
  apparent Kd (screen): 2 µM
PTPN11-NC (Homo sapiens)
  apparent Kd (screen): 0.877 µM
PIK3R2-N (Homo sapiens) [20]
  apparent Kd (screen): 0.281 µM
CRK (Homo sapiens) [21]
  apparent Kd (screen): 2 µM
PIK3R3-C (Homo sapiens)
  apparent Kd (screen): 1.22 µM
PIK3R1-NC (Homo sapiens)
  apparent Kd (screen): 0.741 µM
VAV1 (Homo sapiens) [22]
  apparent Kd (screen): 0.206 µM
BLK (Homo sapiens)
  apparent Kd (screen): 2 µM
RASA1-N (Homo sapiens) [23]
  apparent Kd (screen): 0.675 µM
LYN (Homo sapiens)
  apparent Kd (screen): 2 µM
NCK2 (Homo sapiens) [24]
  apparent Kd (screen): 0.777 µM
PLCG1-C (Homo sapiens) [25]
  apparent Kd (screen): 1.93 µM
GRB2 (Homo sapiens)
  apparent Kd (screen): 0.076 µM
PIK3R3-NC (Homo sapiens) [26]
  apparent Kd (screen): 0.304 µM
BCAR3 (Homo sapiens)
  apparent Kd (screen): 1 µM
PIK3R2-NC (Homo sapiens)
  apparent Kd (screen): 0.776 µM
ABL2 (Homo sapiens) [27]
  apparent Kd (screen): 0.071 µM
TNS3 (Homo sapiens)
  apparent Kd (screen): 0.765 µM
GRAP2 (Homo sapiens)
  apparent Kd (screen): 0.958 µM
SLA (Homo sapiens) [28]
  apparent Kd (screen): 2 µM
BMX (Homo sapiens)
  apparent Kd (screen): 0.52 µM
PIK3R3-N (Homo sapiens)
  apparent Kd (screen): 0.395 µM
PLCG2-NC (Homo sapiens)
  apparent Kd (screen): 1.28 µM
TENC1 (Homo sapiens)
  apparent Kd (screen): 0.565 µM
CRKL (Homo sapiens) [29]
  apparent Kd (screen): 2 µM
SH2D2A (Homo sapiens)
  apparent Kd (screen): 0.98 µM
HCK (Homo sapiens)
  apparent Kd (screen): 2 µM
PIK3R1-N (Homo sapiens)
  apparent Kd (screen): 0.508 µM
SH3BP2 (Homo sapiens)
  apparent Kd (screen): 0.406 µM
GRB7 (Homo sapiens)
  apparent Kd (screen): 2 µM
